Among the data in PMC2212392 are Kd and koff values, retold here.

pKd: −log10 of the molar value. Like-named read-outs stand apart in the source and are kept apart here.

Common to all, as to experiment: SPR
Assay [1] concerns the target soluble mCD2 comprising the extracellular region of mCD2 (mouse) (UniProt P08920).
For assay [2] the target is unchanged. This is another data set of the same source.
The target is the same in assay [3]. This is another data set of the same source.

Chain of UniProt P08920 (P08920 23-203): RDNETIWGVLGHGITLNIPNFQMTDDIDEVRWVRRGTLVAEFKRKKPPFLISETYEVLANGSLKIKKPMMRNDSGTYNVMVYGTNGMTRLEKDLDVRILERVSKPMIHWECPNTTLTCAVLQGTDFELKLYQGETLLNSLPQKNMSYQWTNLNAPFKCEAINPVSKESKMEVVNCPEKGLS

Broadly, the pKd is −log10 of the Kd, conventionally taken in molar units. Broadly, the koff is a measure of how fast the partners let go of each other. A high value points to a short-lived complex. Turning to “soluble mCD48 (purified monomeric mouse CD48 with a COOH-terminal His-tag) (from UniProt P18181 23-217) (domain or fragment)”, the pKd was 4.05 in assay [1] and 4.31 in assay [3]. For the same substance, the koff is > 20 s⁻¹ in assay [1] and 22 s⁻¹ in assay [2].
